Data on 38 sequences can be found in the supplement of paper PMC7877785.

± gives the uncertainty stated by the source.

This series in a line: self-splicing fitness, log relative to wild type (ln ratio); higher = more splicing; Tetrahymena group I intron in knt gene, E. coli kanamycin selection, DiMSum; sequences stand for … in CUCUCU…GGAGGGAAAAGUUAUCAGGCAUGCACCUGGUAGCUAGUCUUUAAACCAAUAGAUUGCAUCGGUUUAAAAGGCAAGACCGUCAAAUUGCGGGAAAGGGGUCAACAGCCGUUCAGUACCAAGUCUCAGGGGAAACUUUGAGAUGGCCUUGCAAAGGGUAUGGUAAUAAGCUGACGGACAUGGUCCUAACCACGCAGCCAAGUCCUAAGUCAACAGAUCUUCUGUUGAUAUGGAUGCAGUUCACAGACUAAAUGUCGGUCGGGGAAGAUGUAUUCUUCUCAUAAGAUAUAGUCGGACCUCUCCUUAAUGGGAGCUAGCGGAUGAAGUGAUGCAACACUGGAGCCGCUGGGAACUAAUUUGUAUGCGAAAGUAUAUUGAUUAGUUUUGGAGUACUCGUGGUCG
The essentials:
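Colonies from six replicate transformations of E. coli BL21(DE3) were pooled and amplicon-sequenced on an Illumina HiSeq 2500. The library placed an intron with all eight P1ex-region nucleotides randomised inside the knt kanamycin-resistance gene on pET-22b(+), and cells grew overnight at 37°C or 30°C on LB agar with or without 25 μg/mL kanamycin (plus 100 μg/mL carbenicillin, 50 μM IPTG, 0.2% rhamnose). Fitness is the DiMSum error-weighted combination of wild-type-normalised replicate fold changes, kanamycin versus none.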

As for UGACAGCAAUAUUACGUAUU, the “self-splicing fitness (ln)” value is -3.43 ± 0.15 (30 °C) and -1.78 ± 0.11 (37 °C).

Take CUCCAGCAAUAUUACGCCUU: the “self-splicing fitness (ln)” value is, setting by setting: (30 °C) -2.33 ± 0.18; (37 °C) -2.29 ± 0.27.

Take CAGGAGCAAUAUUACGUGUA: the “self-splicing fitness (ln)” value is -4.13 ± 0.27 (30 °C) and -2.83 ± 0.25 (37 °C).

Regarding UGGGAGCAAUAUUACGUAUA, the “self-splicing fitness (ln)” value (37 °C) is -2.74 ± 0.35.

As to UUAGAGCAAUAUUACGGCCC, the “self-splicing fitness (ln)” value is, setting by setting: (30 °C) -3.84 ± 0.36; (37 °C) -1.52 ± 0.32.

For AAGAAGCAAUAUUACGACGC, the “self-splicing fitness (ln)” value (30 °C) was -0.655 ± 0.12 and the “self-splicing fitness (ln)” value (37 °C) is -0.0572 ± 0.17.

For the sequence CCACAGCAAUAUUACGGCAA, the “self-splicing fitness (ln)” value is, setting by setting: (30 °C) -2.92 ± 0.29; (37 °C) -2.74 ± 0.32.

With ACUAAGCAAUAUUACGGUCU, the “self-splicing fitness (ln)” value (30 °C) is -1.45 ± 0.072 and the “self-splicing fitness (ln)” value (37 °C) was -0.907 ± 0.082.

On to UCCUAGCAAUAUUACGACCG, for which the “self-splicing fitness (ln)” value runs as follows: (30 °C) -3.3 ± 0.28; (37 °C) -3.65 ± 0.34.

On to UUCGAGCAAUAUUACGGUUG, for which the “self-splicing fitness (ln)” value is, setting by setting: (30 °C) -3.78 ± 0.19; (37 °C) -2.47 ± 0.16.

As for GUAAAGCAAUAUUACGCAAG, the “self-splicing fitness (ln)” value is, setting by setting: (30 °C) -2.89 ± 0.18; (37 °C) -0.51 ± 0.12.

For the sequence CAGAAGCAAUAUUACGUGGG, the “self-splicing fitness (ln)” value runs as follows: (30 °C) -3.34 ± 0.17; (37 °C) -2.6 ± 0.16.

On to UAGAAGCAAUAUUACGUUAC, for which the “self-splicing fitness (ln)” value (30 °C) was -3.73 ± 0.32 and the “self-splicing fitness (ln)” value (37 °C) was -2.79 ± 0.27.

With UGUAAGCAAUAUUACGGAUU, the “self-splicing fitness (ln)” value (30 °C) is -2.59 ± 0.12 and the “self-splicing fitness (ln)” value (37 °C) was -1.09 ± 0.12.

Take AACCAGCAAUAUUACGGUGA: the “self-splicing fitness (ln)” value is -1.19 ± 0.065 (30 °C) and -0.538 ± 0.078 (37 °C).

Turning to UCUAAGCAAUAUUACGGAGU, the “self-splicing fitness (ln)” value (30 °C) was -2.04 ± 0.13 and the “self-splicing fitness (ln)” value (37 °C) is -0.505 ± 0.14.

AGGCAGCAAUAUUACGUCUG: the “self-splicing fitness (ln)” value (30 °C) is -2.66 ± 0.15 and the “self-splicing fitness (ln)” value (37 °C) was -1.51 ± 0.15.

Turning to CUAGAGCAAUAUUACGACGA, the “self-splicing fitness (ln)” value was -3.35 ± 0.13 (30 °C) and -1.36 ± 0.13 (37 °C).

For AAUAAGCAAUAUUACGCAAC, the “self-splicing fitness (ln)” value was -2.79 ± 0.3 (30 °C) and -0.975 ± 0.2 (37 °C).

As to ACUUAGCAAUAUUACGUAGU, the “self-splicing fitness (ln)” value is, setting by setting: (30 °C) -2.87 ± 0.11; (37 °C) -2.73 ± 0.19.

For the sequence ACAGAGCAAUAUUACGAGAU, the “self-splicing fitness (ln)” value is -3.23 ± 0.19 (30 °C) and -2.55 ± 0.23 (37 °C).

Consider GGCAAGCAAUAUUACGGGGA, for which the “self-splicing fitness (ln)” value runs as follows: (30 °C) -3.51 ± 0.26; (37 °C) -1.31 ± 0.3.

For the sequence UACUAGCAAUAUUACGGCGU, the “self-splicing fitness (ln)” value (30 °C) is -2.16 ± 0.11 and the “self-splicing fitness (ln)” value (37 °C) is -0.707 ± 0.12.

As for UCAUAGCAAUAUUACGCUUG, the “self-splicing fitness (ln)” value (30 °C) was -1.97 ± 0.15 and the “self-splicing fitness (ln)” value (37 °C) is -2 ± 0.19.

Consider GUAAAGCAAUAUUACGACAA, for which the “self-splicing fitness (ln)” value was -0.153 ± 0.12 (30 °C) and -0.2 ± 0.13 (37 °C).

With AGAUAGCAAUAUUACGCCAA, the “self-splicing fitness (ln)” value runs as follows: (30 °C) -2.98 ± 0.38; (37 °C) -3.38 ± 0.37.

For the sequence CGAAAGCAAUAUUACGGGCC, the “self-splicing fitness (ln)” value (30 °C) is -3.07 ± 0.23 and the “self-splicing fitness (ln)” value (37 °C) is -3.07 ± 0.21.

Take GCCUAGCAAUAUUACGCAGA: the “self-splicing fitness (ln)” value is, setting by setting: (30 °C) -3.96 ± 0.33; (37 °C) -2.06 ± 0.23.

For AGACAGCAAUAUUACGCAAA, the “self-splicing fitness (ln)” value was -2.66 ± 0.18 (30 °C) and -1.37 ± 0.14 (37 °C).

For the sequence AGGUAGCAAUAUUACGGGGA, the “self-splicing fitness (ln)” value runs as follows: (30 °C) -3.342 ± 0.031; (37 °C) -2.42 ± 0.039.

For CUAGAGCAAUAUUACGAGAG, the “self-splicing fitness (ln)” value is -0.641 ± 0.071 (30 °C) and -0.393 ± 0.099 (37 °C).

Take GAGUAGCAAUAUUACGGUGG: the “self-splicing fitness (ln)” value runs as follows: (30 °C) -3.37 ± 0.26; (37 °C) -2.15 ± 0.18.

Consider CACAAGCAAUAUUACGUCGA, for which the “self-splicing fitness (ln)” value is -2.62 ± 0.078 (30 °C) and -0.984 ± 0.073 (37 °C).

Turning to GACGAGCAAUAUUACGAUCU, the “self-splicing fitness (ln)” value is, setting by setting: (30 °C) -2.04 ± 0.15; (37 °C) -1.13 ± 0.15.

As for UUUCAGCAAUAUUACGUAUG, the “self-splicing fitness (ln)” value is, setting by setting: (30 °C) -0.689 ± 0.081; (37 °C) -0.635 ± 0.11.

On to UACUAGCAAUAUUACGUGCA, for which the “self-splicing fitness (ln)” value runs as follows: (30 °C) -1.01 ± 0.073; (37 °C) 0.166 ± 0.09.

Take ACUUAGCAAUAUUACGUCGC: the “self-splicing fitness (ln)” value (37 °C) was -1.22 ± 0.26.

GGGAAGCAAUAUUACGGAAU: where the note is “37 °C”, the “self-splicing fitness (ln)” value was -1.67 ± 0.42.
